Experimental data published in patent publication US8071348B2, “Protein tyrosine phosphatase substrate-trapping double mutant and uses thereof” (Albert Einstein College of Medicine of Yeshiva University, priority 2002, dated 2011).

Key:
[1] = test system: EGFR^988-998 peptide, DADEpYLIPQQG; experiment: Kinetic constants for PTP1B-catalyzed hydrolysis of pTyr-containing EGFR988-998 peptide; type: biochemical; conditions: EGFR988-998 peptide as substrate
Method in brief: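 PTP1B catalytic domain (residues 1–321), wild-type or mutant, expressed in E. coli. Continuous assay at 25° C., pH 7.0, in 50 mM 3,3-dimethylglutarate with 1 mM EDTA (ionic strength 0.15 M). Dephosphorylation followed by absorbance increase at 282 nm or fluorescence at 305 nm to obtain kcat and Km.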

[2] = molecular target: T1, Ac-Asp-Ala-Asp-Glu-F2Pmp-Leu-NH2 (Homo sapiens, UniProt P18031, C215S); experiment: Isothermal titration calorimetry, binding of PTP1B and mutants to F2Pmp peptide; conditions: lower temperature (15° C.)
T1 construct: The catalytic domain of PTP1B (residues 1 to 321) was used for in vitro study; made in house; host or cells: E. coli (pT7-7 plasmids)
T1 sequence (P18031 1-321 C215S): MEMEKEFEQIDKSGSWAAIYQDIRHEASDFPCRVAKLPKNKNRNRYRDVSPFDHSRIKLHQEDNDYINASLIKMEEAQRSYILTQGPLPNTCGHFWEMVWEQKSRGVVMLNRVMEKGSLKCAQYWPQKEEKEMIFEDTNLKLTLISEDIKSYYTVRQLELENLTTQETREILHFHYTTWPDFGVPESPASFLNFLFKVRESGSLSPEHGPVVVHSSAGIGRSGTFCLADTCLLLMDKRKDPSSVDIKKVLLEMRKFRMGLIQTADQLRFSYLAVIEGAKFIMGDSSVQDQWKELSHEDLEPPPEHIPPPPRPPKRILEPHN
Protocol: FIG. 3 portrays calorimetric isothermal titration for the reaction of peptide Ac-Asp-Ala-Asp-Glu-F2Pmp-Leu-NH2 with PTP1B/D181A/Q262A. The upper graph depicts raw data for thirty 8-μl injections of the peptide (0.5 mM stock) into the isothermal cell containing 32 μM PTP1B/D181A/Q262A, at 4-min intervals and 25° C. Both the protein and the peptide were in 50 mM 3,3-dimethylglutarate buffer (I=0.15 M, pH 7.0) containing 1 mM DTT. The lower graph depicts an integration curve showing experimental points that were obtained by integration of the above peaks as plotted against the molar ratio of the peptide to PTP1B/D181A/Q262A within the reaction cell. The solid line corresponds to the best fit to the data according to the nonlinear, least-squares regression algorithm, ORIGIN (29).
All isothermal titration calorimetry experiments were performed using an MCS Isothermal Titration Calorimetry System from Microcal Inc. (Northampton, Mass.). […] The ionic strength of the buffer was adjusted to 0.15 M by addition of NaCl. Protein concentration in the calorimeter cell was 27-85 μM, while the ligand concentration in the syringe was 0.37-1 mM.
The PTP1B samples used in the isothermal titration calorimetry experiments were dialyzed completely against buffer. High-concentration stock solutions were prepared for ligands with distilled water, and adjusted to pH 7.0. Stock was diluted at least 26-fold with 50 mM 3,3-dimethylglutarate buffer before titration. Protein dilution during titration was determined by titration of buffer into the protein solution. […] The heat of ligand dilution was corrected by subtracting the average heat of injection after saturation.
The binding data were analyzed using ORIGIN software (29). Binding constant, K, and enthalpy change, ΔH, were used to calculate free energy change, ΔG, and entropy change, ΔS, according to equation [1]: −RTLnK=ΔG=ΔH−TΔS [1] where R is the gas constant and T is the absolute temperature.

[3] = test system: Ac-Asp-Ala-Asp-Glu-F2Pmp-Leu-NH2; conditions: cited from earlier work

B1: C215S: existing PTP1B substrate-trapping mutant, active site Cys215 replaced by Ser (protein, UniProt P18031 1-435, looked up, variant C215S)
Tyrosine-protein phosphatase …: MEMEKEFEQIDKSGSWAAIYQDIRHEASDFPCRVAKLPKNKNRNRYRDVSPFDHSRIKLHQEDNDYINASLIKMEEAQRSYILTQGPLPNTCGHFWEMVWEQKSRGVVMLNRVMEKGSLKCAQYWPQKEEKEMIFEDTNLKLTLISEDIKSYYTVRQLELENLTTQETREILHFHYTTWPDFGVPESPASFLNFLFKVRESGSLSPEHGPVVVHSSAGIGRSGTFCLADTCLLLMDKRKDPSSVDIKKVLLEMRKFRMGLIQTADQLRFSYLAVIEGAKFIMGDSSVQDQWKELSHEDLEPPPEHIPPPPRPPKRILEPHNGKCREFFPNHQWVKEETQEDKDCPIKEEKGSPLNAAPYGIESMSQDTEVRSRVVGGSLRGAQAASPAKGEPSLPEKDEDHALSYWKPFLVNMCVATVLTAGAYLCYRFLFNSNT
Question: With B1 as the molecule, how does the phosphatase activity [1] read?
Answer: The phosphatase activity was “no measurable activities”.

Question: What about the “shape of ITC titration curve” value [2] of the same molecule?
Answer: The value was “displayed two peaks”.

Question: What about the “affinity compared with wild-type enzyme” value ([3]; F2Pmp peptide, previously determined (24)) of the same molecule?
Answer: The value was “same affinity as the wild-type enzyme”.

Question: What about the Kd ([3]; ITC, 25° C. and pH 7.0, data from (24)) of the same molecule?
Answer: Its Kd is 190 ± 30 nM.
